First the molecules themselves.
T1: Human CD3eg linker (human)
T1 construct: Single-chain construct; also called recombinant human CD3
T1 chain: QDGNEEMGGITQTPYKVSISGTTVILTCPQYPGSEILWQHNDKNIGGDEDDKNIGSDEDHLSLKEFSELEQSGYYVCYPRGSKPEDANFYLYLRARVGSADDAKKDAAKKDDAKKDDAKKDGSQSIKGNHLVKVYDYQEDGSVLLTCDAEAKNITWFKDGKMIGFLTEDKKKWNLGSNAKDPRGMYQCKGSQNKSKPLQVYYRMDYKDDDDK

B1: H183/L072 VL A25I (antibody, name in Kabat numbering, V domains shown)
VH: QVQLVESGGGLVQPGRSLRLSCAASGFTFSNAWMHWVRQAPGKGLEWVAQIKDKGNAYAAYYAPSVKGRFTISRDDSKNSIYLQMNSLKTEDTAVYYCHYVHYASASTVLPAFGVDAWGQGTTVTVSS
VL: DIVMTQSPLSLPVTPGEPASISCQISQELVHMNRNTYLHWYQQKPGQAPRLLIYKVSNRFPGVPDRFSGSGSGTDFTLKISRVEAEDVGVYYCAQGTSVPFTFGQGTKLEIK
B2: H183/L072 VL A25R (antibody, name in Kabat numbering, V domains shown)
VH: B1 VH
VL: B1 VL with I25R
B3: H183/L072 VL E27aM (antibody, name in Kabat numbering, V domains shown)
VH: B1 VH
VL: B1 VL with I25A, E28M
B4: H183/L072 VL A89D (antibody, name in Kabat numbering, V domains shown)
VH: B1 VH
VL: B1 VL with I25A, A94D
B5: H183/L072 VL F55D (antibody, name in Kabat numbering, V domains shown)
VH: B1 VH
VL: B1 VL with I25A, F60D
B6: H183/L072 VL E27aP (antibody, name in Kabat numbering, V domains shown)
VH: B1 VH
VL: B1 VL with I25A, E28P
B7: H183/L072 VL E27aF (antibody, name in Kabat numbering, V domains shown)
VH: B1 VH
VL: B1 VL with I25A, E28F
B8: H183/L072 VL E27aV (antibody, name in Kabat numbering, V domains shown)
VH: B1 VH
VL: B1 VL with I25A, E28V
B9: H183/L072 VL A89Q (antibody, name in Kabat numbering, V domains shown)
VH: B1 VH
VL: B1 VL with I25A, A94Q
B10: H183/L072 VL A89V (antibody, name in Kabat numbering, V domains shown)
VH: B1 VH
VL: B1 VL with I25A, A94V
B11: H183/L072 VL A25Q (antibody, name in Kabat numbering, V domains shown)
VH: B1 VH
VL: B1 VL with I25Q
B12: H183/L072 VL A89E (antibody, name in Kabat numbering, V domains shown)
VH: B1 VH
VL: B1 VL with I25A, A94E
B13: H183/L072 VL E27aH (antibody, name in Kabat numbering, V domains shown)
VH: B1 VH
VL: B1 VL with I25A, E28H
B14: H183/L072 VL A25P (antibody, name in Kabat numbering, V domains shown)
VH: B1 VH
VL: B1 VL with I25P
B15: H183/L072 VL A89H (antibody, name in Kabat numbering, V domains shown)
VH: B1 VH
VL: B1 VL with I25A, A94H
B16: H183/L072 VL E27aA (antibody, name in Kabat numbering, V domains shown)
VH: B1 VH
VL: B1 VL with I25A, E28A
B17: H183/L072 VL A89F (antibody, name in Kabat numbering, V domains shown)
VH: B1 VH
VL: B1 VL with I25A, A94F
B18: H183/L072 VL F55A (antibody, name in Kabat numbering, V domains shown)
VH: B1 VH
VL: B1 VL with I25A, F60A
B19: H183/L072 VL A25V (antibody, name in Kabat numbering, V domains shown)
VH: B1 VH
VL: B1 VL with I25V
B20: H183/L072 VL A89T (antibody, name in Kabat numbering, V domains shown)
VH: B1 VH
VL: B1 VL with I25A, A94T
B21: H183/L072 VL E27aR (antibody, name in Kabat numbering, V domains shown)
VH: B1 VH
VL: B1 VL with I25A, E28R
B22: H183/L072 VL A25N (antibody, name in Kabat numbering, V domains shown)
VH: B1 VH
VL: B1 VL with I25N
B23: H183/L072 VL E27aY (antibody, name in Kabat numbering, V domains shown)
VH: B1 VH
VL: B1 VL with I25A, E28Y
B24: H183/L072 VL A89K (antibody, name in Kabat numbering, V domains shown)
VH: B1 VH
VL: B1 VL with I25A, A94K
B25: H183/L072 VL A89M (antibody, name in Kabat numbering, V domains shown)
VH: B1 VH
VL: B1 VL with I25A, A94M
B26: H183/L072 VL E27aT (antibody, name in Kabat numbering, V domains shown)
VH: B1 VH
VL: B1 VL with I25A, E28T
B27: H183/L072 VL E27aW (antibody, name in Kabat numbering, V domains shown)
VH: B1 VH
VL: B1 VL with I25A, E28W
B28: H183/L072 VL A25S (antibody, name in Kabat numbering, V domains shown)
VH: B1 VH
VL: B1 VL with I25S
B29: H183/L072 VL E27aN (antibody, name in Kabat numbering, V domains shown)
VH: B1 VH
VL: B1 VL with I25A, E28N
B30: H183/L072 VL E27aL (antibody, name in Kabat numbering, V domains shown)
VH: B1 VH
VL: B1 VL with I25A, E28L
B31: H183/L072 VL A25T (antibody, name in Kabat numbering, V domains shown)
VH: B1 VH
VL: B1 VL with I25T
B32: H183/L072 VL E27aG (antibody, name in Kabat numbering, V domains shown)
VH: B1 VH
VL: B1 VL with I25A, E28G
B33: H183/L072 VL A89G (antibody, name in Kabat numbering, V domains shown)
VH: B1 VH
VL: B1 VL with I25A, A94G
B34: H183/L072 VL E27aS (antibody, name in Kabat numbering, V domains shown)
VH: B1 VH
VL: B1 VL with I25A, E28S
B35: H183/L072 VL E27aQ (antibody, name in Kabat numbering, V domains shown)
VH: B1 VH
VL: B1 VL with I25A, E28Q
B36: H183/L072 VL A25M (antibody, name in Kabat numbering, V domains shown)
VH: B1 VH
VL: B1 VL with I25M
B37: H183/L072 VL A89S (antibody, name in Kabat numbering, V domains shown)
VH: B1 VH
VL: B1 VL with I25A, A94S
B38: H183/L072 VL E27aK (antibody, name in Kabat numbering, V domains shown)
VH: B1 VH
VL: B1 VL with I25A, E28K
B39: H183/L072 VL E27aD (antibody, name in Kabat numbering, V domains shown)
VH: B1 VH
VL: B1 VL with I25A, E28D
B40: H183/L072 VL E27aI (antibody, name in Kabat numbering, V domains shown)
VH: B1 VH
VL: B1 VL with I25A, E28I
B41: H183/L072 VL A25K (antibody, name in Kabat numbering, V domains shown)
VH: B1 VH
VL: B1 VL with I25K
B42: H183/L072 VL A89W (antibody, name in Kabat numbering, V domains shown)
VH: B1 VH
VL: B1 VL with I25A, A94W

Where a chain is given by its changes, count along the chain named. Numbers in names are those of the source.

The source of these data is patent US20210388087A1 (Chugai, published 2021).

In this experiment the target is T1, Human CD3eg linker. As to the kind of experiment: SPR; fold vs parent H183/L072.
Regarding B1, the “fold change of affinity” value stood at 0.3 fold.

Regarding B2, the “fold change of affinity” value came to 0 fold.

Turning to B3, the “fold change of affinity” value was found to be 1.2 fold.

B4: the “fold change of affinity” value is 0 fold.

As for B5, the “fold change of affinity” value was determined as 6.1 fold.

For B6, the “fold change of affinity” value was 1 fold.

Turning to B7, the “fold change of affinity” value was 1.1 fold.

As for B8, the “fold change of affinity” value amounted to 1 fold.

As for B9, the “fold change of affinity” value is 0.2 fold.

B10: the “fold change of affinity” value was 0.4 fold.

On to B11, for which the “fold change of affinity” value came out at 0 fold.

Regarding B12, the “fold change of affinity” value amounted to 0 fold.

Turning to B13, the “fold change of affinity” value was determined as 1.4 fold.

Take B14: the “fold change of affinity” value was 1.2 fold.

As to B15, the “fold change of affinity” value is 0 fold.

Turning to B16, the “fold change of affinity” value was determined as 1.2 fold.

Take B17: the “fold change of affinity” value turned out to be 0.2 fold.

As for B18, the “fold change of affinity” value was found to be 7.2 fold.

Consider B19, for which the “fold change of affinity” value amounted to 0.9 fold.

Consider B20, for which the “fold change of affinity” value stood at 0 fold.

In the case of B21, the “fold change of affinity” value was 1.2 fold.

For the molecule B22, the “fold change of affinity” value amounted to 0.5 fold.

B23: the “fold change of affinity” value worked out at 1.2 fold.

With B24, the “fold change of affinity” value worked out at 1.1 fold.

Regarding B25, the “fold change of affinity” value came out at 0.1 fold.

Turning to B26, the “fold change of affinity” value turned out to be 1.3 fold.

As for B27, the “fold change of affinity” value turned out to be 1.1 fold.

In the case of B28, the “fold change of affinity” value is 1.3 fold.

Take B29: the “fold change of affinity” value came out at 1.1 fold.

As for B30, the “fold change of affinity” value stood at 1.2 fold.

As to B31, the “fold change of affinity” value stood at 1.1 fold.

Take B32: the “fold change of affinity” value was determined as 1.4 fold.

Regarding B33, the “fold change of affinity” value was 0.7 fold.

In the case of B34, the “fold change of affinity” value is 1.3 fold.

B35: the “fold change of affinity” value came out at 1.2 fold.

For the molecule B36, the “fold change of affinity” value was 0 fold.

Consider B37, for which the “fold change of affinity” value is 0.6 fold.

For the molecule B38, the “fold change of affinity” value turned out to be 1.1 fold.

As for B39, the “fold change of affinity” value was found to be 1.1 fold.

In the case of B40, the “fold change of affinity” value came out at 1.1 fold.

Turning to B41, the “fold change of affinity” value turned out to be 0 fold.

As for B42, the “fold change of affinity” value was 0.1 fold.
